ChEMBL document CHEMBL2074511, “Molecular cloning and pharmacological characterization of rat multidrug resistance protein 1 (mrp1)” (Drug Metab Dispos, 2003)

Substrate: CCCCC/C=C\C\C=C/C=C/C=C/[C@@H](SC[C@@H](NC(=O)CC[C@H](N)C(=O)O)C(=O)NCC(=O)O)[C@@H](O)CCCC(=O)O
Experiment: cells, lysate or membranes named

B1: Multidrug resistance-associated protein 1 (Mus musculus) (protein)
chain: MALRSFCSADGSDPLWDWNVTWHTSNPDFTKCFQNTVLTWVPCFYLWSCFPLYFFYLSRHDRGYIQMTHLNKTKTALGFFLWIICWADLFYSFWERSQGVLRAPVLLVSPTLLGITMLLATFLIQLERRKGVQSSGIMLTFWLVALLCALAILRSKIISALKKDAHVDVFRDSTFYLYFTLVLVQLVLSCFSDCSPLFSETVHDRNPCPESSASFLSRITFWWITGMMVHGYRQPLESSDLWSLNKEDTSEEVVPVLVNNWKKECDKSRKQPVRIVYAPPKDPSKPKGSSQLDVNEEVEALIVKSPHKDREPSLFKVLYKTFGPYFLMSFLYKALHDLMMFAGPKILELIINFVNDREAPDWQGYFYTALLFVSACLQTLALHQYFHICFVSGMRIKTAVVGAVYRKALLITNAARKSSTVGEIVNLMSVDAQRFMDLATYINMIWSAPLQVILALYFLWLSLGPSVLAGVAVMILMVPLNAVMAMKTKTYQVAHMKSKDNRIKLMNEILNGIKVLKLYAWELAFQDKVMSIRQEELKVLKKSAYLAAVGTFTWVCTPFLVALSTFAVFVTVDERNILDAKKAFVSLALFNILRFPLNILPMVISSIVQASVSLKRLRIFLSHEELEPDSIERRSIKSGEGNSITVKNATFTWARGEPPTLNGITFSIPEGALVAVVGQVGCGKSSLLSALLAEMDKVEGHVTLKGSVAYVPQQAWIQNDSLRENILFGHPLQENYYKAVMEACALLPDLEILPSGDRTEIGEKGVNLSGGQKQRVSLARAVYSNSDIYLFDDPLSAVDAHVGKHIFEKVVGPMGLLKNKTRILVTHGISYLPQVDVIIVMSGGKISEMGSYQELLDRDGAFAEFLRTYANAEQDLASEDDSVSGSGKESKPVENGMLVTDTVGKHLQRHLSNSSSHSGDTSQQHSSIAELQKAGAKEETWKLMEADKAQTGQVQLSVYWNYMKAIGLFITFLSIFLFLCNHVSALASNYWLSLWTDDPPVVNGTQANRNFRLSVYGALGILQGAAIFGYSMAVSIGGIFASRRLHLDLLYNVLRSPMSFFERTPSGNLVNRFSKELDTVDSMIPQVIKMFMGSLFSVIGAVIIILLATPIAAVIIPPLGLVYFFVQRFYVASSRQLKRLESVSRSPVYSHFNETLLGVSVIRAFEEQERFIHQSDLKVDENQKAYYPSIVANRWLAVRLECVGNCIVLFAALFAVISRHSLSAGLVGLSVSYSLQITAYLNWLVRMSSEMETNIVAVERLKEYSETEKEAPWQIQETAPPSTWPHSGRVEFRDYCLRYREDLDLVLKHINVTIEGGEKVGIVGRTGAGKSSLTLGLFRINESAEGEIIIDGVNIAKIGLHNLRFKITIIPQDPVLFSGSLRMNLDPFSQYSDEEVWMALELAHLKGFVSALPDKLNHECAEGGENLSVGQRQLVCLARALLRKTKILVLDEATAAVDLETDNLIQSTIRTQFEDCTVLTIAHRLNTIMDYTRVIVLDKGEVRECGAPSELLQQRGIFYSMAKDAGLV
Km: 0.05 µM
